The source of these data is the nanobody polyreactivity screen of Harvey et al. (2022).

This data set is described as follows: yeast display, Sf9 membrane polyspecificity reagent, FACS + sequencing; frameworks hold sequencing errors. The essentials: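 A nanobody's polyreactivity label depends on the gate it was sorted from. Yeast display cells were stained with 10% biotinylated, detergent-solubilized Sf9 membrane reagent for 1 hour at 4 °C, enriched on streptavidin microbeads and sorted by FACS. The low and high (top ~1%) gates were set on anti-HA fluorescence for expression and streptavidin fluorescence for reagent binding.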
Turning to “QVQLVESGGGLVQAGGSLRLSCAASRSIFAGNAMVWYRQSPGKERELVAGITFGDDSTYYADSVKGRFTISRDNAKNTVYLQMNSLKPEVTAVYYCATDLHPYNYYFYHYWVDAAYDYLGQGTQVTVSS”, the “polyreactivity (PSR sort gate)” value is “low polyreactivity”.

Take “QVQLVESGGGLVQAGGSLRLSCAASRSTFEGYAMGLYRQAPGKERELVAAITVSVGSTYYADSVKGRFTISRDNAKNTVYLQMNSLKPEDTAVYYCAADYDYQYRYYYWGQGTQVTVSS”: the “polyreactivity (PSR sort gate)” value is “low polyreactivity”.

Take “QVQLVESGGGLVQAGGSLRLSCAASRSTITYNAMGWYRQAPGKERELVAAISFSGGRTYYADSVKGRFTISRDNAKNIVYLHMNRLKPEDTAVYYCAKRYGASFYYWGQGTQVTVSS”: the “polyreactivity (PSR sort gate)” value is on record as “high polyreactivity”.

For the sequence “QVQLVESGGGLVQAGGSLRLSCAASRSTLCQNAMGWYRQAPGKEREFVADNSGSGDSTYYADSVKGRFTISRDHANNTVYLQLNSLTPEDTAVYYCATPSPHVGLKWEYDSWGQGTQVTVSS”, the “polyreactivity (PSR sort gate)” value was “low polyreactivity”.

For “QVQLVESGGGLVQAGGSLRLSCAASRYIFAHYAMGWYRQAPGKERELVAAISTRGGSTYYADSVKGRFTISRDNAKNTVYLQMNSLKPEDTAVYYCNNYRYAGITAEFYYWGQGTQVTVSS”, the “polyreactivity (PSR sort gate)” value was “high polyreactivity”.

As for “QVQLVESGGGLVQAGGSLRLSCAASRYIFVRYAMGWYRQAPGKERELVAPNNSSGGRTYYAHSVKGRFTISRDNAKNTVYLQMNSLKQEDTAVYYCAAYGYYRSGYRALEGYWGQGTQVTVSS”, the “polyreactivity (PSR sort gate)” value was “high polyreactivity”.

On to “QVQLVESGGGLVQAGGSLRLSCAASSRIFVAKAMGWYRKAPGKERELVATITRGASTNYADSVKGRFTISRDNAKNTVYLQMNRLKPEDTAVYYCDKRSYTGYEYWGQGTQVTVSS”, for which the “polyreactivity (PSR sort gate)” value is recorded as “low polyreactivity”.

Consider “QVQLVESGGGLVQAGGSLRLSCAASVFNFIYYTMGWYRPAPGKERELVAAISWSGGGTYYADSVKGRFTISRDNAKNTVYLLMNRLKPEDTAVYYCAAYWYVSSRDFEYWGQGTQVTVSS”, for which the “polyreactivity (PSR sort gate)” value was “high polyreactivity”.

Turning to “QVQLVESGGGLVQAGGSLRLSCAASVFTCAVYVMGWYRQAPGKERELVANISFSVGSTYYADSVKGRFTISRDYAKNTVYLQMNSLKPEDTAVYYCNADPPPEYYPDKDNYWGQGTQVTVSS”, the “polyreactivity (PSR sort gate)” value was “low polyreactivity”.

Take “QVQLVESGGGLVQAGGSLRLSCAASVFTFPPYAMGWSRQAPGKERELVAAISSAGSTKYADSVKGRFTISRDNAKNTVYLQMNSLKPEDTAVYYCAARWARSYDYWGQGTQVTVSS”: the “polyreactivity (PSR sort gate)” value is on record as “low polyreactivity”.

For the sequence “QVQLVESGGGLVQAGGSLRLSCAASVLIFYWYAMGWYRQAPGKERELVAAISSAGSTNYADSVKGRFTISRDNAKNTVYLQMNSLKPEDTAVYYCYARIAYRYSNYGYWGQGTQVTVSS”, the “polyreactivity (PSR sort gate)” value is “low polyreactivity”.

With “QVQLVESGGGLVQAGGSLRLSCAASVLTFITNVMVWYRQAPGKERELVAVISSRGGTTYYADSVKGRFTISRDNAKNTVYLQMNSLKPEETAVYYCNRVRSPKYDWGQGTQVTVSS”, the “polyreactivity (PSR sort gate)” value was “high polyreactivity”.

With “QVQLVESGGGLVQAGGSLRLSCAASVPTFPFNAMGWYRQAPGKERELVAAISWRDGRTYYADSVKGRFTISRDNAKNTVYLQMNSLKPEDTAVYYCNVVKRRSDWGMDYWGQGTKVTVSS”, the “polyreactivity (PSR sort gate)” value was “high polyreactivity”.

Turning to “QVQLVESGGGLVQAGGSLRLSCAASVRIFGKYAMGRYRQAPGKERELVAAITNSGGRTYYAASVKGRFTISRDNAKNTVYLQMNSLKPEDTAVYYCAALYHASTRQMDYWGQGTQVTVSS”, the “polyreactivity (PSR sort gate)” value is recorded as “high polyreactivity”.

Turning to “QVQLVESGGGLVQAGGSLRLSCAASVRIFGSNVMGWYRQAPGKERELVAAINWIGGSTYYADSVKGRFTISRDNAKNTVYLQMNSLKPEDTAVYYCARKRYNGRGYVGYYYWGQGTQVTVSS”, the “polyreactivity (PSR sort gate)” value is “high polyreactivity”.

Consider “QVQLVESGGGLVQAGGSLRLSCAASVRIFGYNAMGWSRQAPGKERYLVAAITTSGGSTYYADSVKGRFTISRDNAKNTVYLQMNSLKPEDTAVYYCARDSLQVFYPYASDDYWGQGTQVTVSS”, for which the “polyreactivity (PSR sort gate)” value was “low polyreactivity”.

In the case of “QVQLVESGGGLVQAGGSLRLSCAASVRIFQYYVMGWYIQAPGKERELVAAITSGGGTKYADSVKGRFTISRDNAKNTVYLQMNSLIPEDTAVYFCAAAWFDQYSRYDYWGQGTQVTVSS”, the “polyreactivity (PSR sort gate)” value is “low polyreactivity”.

“QVQLVESGGGLVQAGGSLRLSCAASVRIFRGNDMGWYRKAPGKERELVARITGNDGDTYYADSVKGRFTISRDNAKNTVYLQMNSLKPEDTAVYYCATDTSSYRRRYYYWGQGTQVTVSS”: the “polyreactivity (PSR sort gate)” value is given as “low polyreactivity”.

As for “QVQLVESGGGLVQAGGSLRLSCAASVRIFRYYVMGWYRQAPGKVRELVAAITSGTSTNFAESVKGRFTISRDNAKNTVYLQMNRLKPEDTAVFYCAVRSPRGGRTRFNSNYWGQGTQVTVSS”, the “polyreactivity (PSR sort gate)” value is recorded as “high polyreactivity”.

As for “QVQLVESGGGLVQAGGSLRLSCAASVRLFRGYAMGWYRQAPGKERELVAGITSGGSTKYADSVKGRFTISRDNAKNTVYLQMNSLKPEDTAVYDCAKGYLAYSYYARPYIRYYWGQGTQVTVSS”, the “polyreactivity (PSR sort gate)” value is reported as “high polyreactivity”.

“QVQLVESGGGLVQAGGSLRLSCAASVRTFDSYTMGWYRPAPGKERELVAAIRSSGGRTYADSVKGRFTISRDNAKNTVYLQMNSLKPEDTAVYYCAAARSYWAKYYYWGQGTQVTVSS”: the “polyreactivity (PSR sort gate)” value is on record as “high polyreactivity”.

For “QVQLVESGGGLVQAGGSLRLSCAASVRTFGGYAMGLYRQAPGKERELVAAITSDTGTNYADSVKGRFTISRDNAKNTVYLEMNSLKPEDTAVYYCAADTPYSYYLNIYWKGMDYWGQGTQVTVSS”, the “polyreactivity (PSR sort gate)” value is given as “low polyreactivity”.

On to “QVQLVESGGGLVQAGGSLRLSCAASVRTFHYYAMGWYRQAPGKERELVAGITGGGSTYYADSVKGRFTISRDNAKNTVYLLMNSLKPEDTAVYYCADDRSYYGYGYCGQGTQVTVSS”, for which the “polyreactivity (PSR sort gate)” value is “low polyreactivity”.

Take “QVQLVESGGGLVQAGGSLRLSCAASVSIFGYYAMGWYRPAPGKEMELVAAISSGGNTNYADSVKGRFTISRDNAKNTVYLQMISLKQEDTAVYYCATRARYKRIRYDYWGQGTQVTVSS”: the “polyreactivity (PSR sort gate)” value is listed as “high polyreactivity”.

Turning to “QVQLVESGGGLVQAGGSLRLSCAASVSIFIANVMGWYRQAPGKERELVAAITRTSSTYYADSVKGRFTISRDNAKNTVYLQMNSLKPEDTAVYYCAKLYGVVGRWYRSSYGYWGQGTQVTVSS”, the “polyreactivity (PSR sort gate)” value is on record as “high polyreactivity”.

For the sequence “QVQLVESGGGLVQAGGSLRLSCAASVSISLYYAMGWYRQAPGKERELVAAISTRGGSTYYADSVKGRFTISRDNAKNTVYLQMNSLKPEDTAVYYCAARTRLTADPRYGISSKMYYWGQGTQVTVSS”, the “polyreactivity (PSR sort gate)” value is “high polyreactivity”.

In the case of “QVQLVESGGGLVQAGGSLRLSCAASVSLSGYYAMGWYRTGPGKERELVASIRYTGALTYYADTVKGRFTISRDNAKNTVYLQMNSLKPEDTAGYYCAADVKRDRVWGGDYWGQGTQVTVSS”, the “polyreactivity (PSR sort gate)” value is “low polyreactivity”.

As to “QVQLVESGGGLVQAGGSLRLSCAASVSPFWLNAMGWYRPAPGKEREFVAAITVGGGSTYYADSVKGRFTISRDNAKNTDYLQMNSLKPEDTAVYYCAALYRFWYPGNSYDYWGQGTQVTVSS”, the “polyreactivity (PSR sort gate)” value was “high polyreactivity”.

In the case of “QVQLVESGGGLVQAGGSLRLSCAASVSTFAVYAMGWYRQAPGKERELVAAISSSGDRTFYADSVKGRFTISRDNAKNTVYLQMNSLKPEDTAVYYCNVPYKYRRAYDGGYDYWGQGTQVTVSS”, the “polyreactivity (PSR sort gate)” value is reported as “high polyreactivity”.

As to “QVQLVESGGGLVQAGGSLRLSCAASVSTFFRYAKRWYRQAPGKERELVAAISKRGGSTSYADSVKGRFTISRDNAKNTVYLQMNSLKPEDTAVYYCATVYWLFARYDYWGQGTQVTVSS”, the “polyreactivity (PSR sort gate)” value is “high polyreactivity”.
